41 sequences from the nanobody polyreactivity screen of Harvey et al. (2022) can be followed below.

The nature of this series: yeast display, Sf9 membrane polyspecificity reagent, FACS + sequencing; frameworks hold sequencing errors. In short, it runs like this: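 Galactose induction of a Saccharomyces cerevisiae BJ5465 synthetic nanobody display library ran 36–48 hours. The cells were then stained for 1 hour at 4 °C with 10% biotinylated, detergent-solubilized Sf9 membrane reagent, pulled down on streptavidin microbeads and FACS-sorted into low and high (top ~1%) gates on expression and reagent-binding fluorescence. Labels for polyreactivity follow the gate of origin.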
Take “QVHLVESGGRLVLAGGSLRLSCAASRRIFDLNAMRGYIQAPGKERELFAAITNTGSTNYADSVKGRFTISRDNAKNTVYLQMNSLKPEDTAVYYCARTYWLRYFGYRDDEYDYWGQGTQVTVSS”: the “polyreactivity (PSR sort gate)” value is “low polyreactivity”.
“QVHLVESGGRLVQAGGSLRLRCAASGRTFIANVMGLYRQAPRKETELVAAISTRGGSTYYADSVKGRFTISRDYAKYTVYLHMNRLKPEDTAVDYCAAYYPAQRGFNSWGQGTQVTVSS”: the “polyreactivity (PSR sort gate)” value is “high polyreactivity”.
To “QVHLVESGGVLVQAGGSLRLSCAASGRIFSYYAMGWYRQAPGKEREMVAAISWTVGSTYYADSVKGRFTISRDNAINTVYLQMNSLYPEDTAVFYCAAAYGWSWYRYDYWGQGTQVTVSS” belongs “high polyreactivity”.
To “QVHLVESGVGLVKAGGTLRLSCAASGGIFIRNAMGWYRQAPGKERELVATISNAGSTYADAVKGRFTISRDNAKNPVHLQMHSLKPEDTAVYYCNRDDWTYPVYQGLQEYDYWGQGTQVSVSS” belongs “low polyreactivity”.
For “QVHLVESGVGLVQAGGSLRLSCAASGYTFPAYAMGRYRQAPVKERELVAGISSGGRTYYAYSVKGRFTISRDNAKNTVYLQMNSLKPEDTAVYYCAAFRFYWQSPERYYYWGQGTQVSVSS” the value was “high polyreactivity”; for “QVHLVESGVGLVQAGGSRRLSCAASGVIFTGYAMGRYRHAPGKDRELVAAISSSGTSTYYADSVKGRFTISRDNAKYTVYLQINSLKPEDTAVYYCARVSKRTWSGYYFLGQGTQVTVSS”, “high polyreactivity”; for “QVHLVESRGVLVQAGGSLRLSCAASGRTFPSYTMGWYRQAPGKERELVAAITWTGGSTYYADSVKGRFTISRDNAKNTVYFQMNSLKPDDTAVYYCADYDYWGQGTQVTVSS”, “low polyreactivity”.
As for “QVHLVESVGGLVQAGGSLRLSCAASGFILAVYVLGWYRQAPGKDRELVAAISWSGGSTYYADSVKGRFTISRDNAKNTVYLQMNSLKPEATAVYYCNTVAKSPVKYDYWGQGTQVTVSS”, the “polyreactivity (PSR sort gate)” value is “high polyreactivity”.
For “QVHLVESVGGLVQAGGSLRLSCAASGFIYKPYAMGWYRQAPGKERELVAAITVNGCTTYYADSVKARFTISRDNAKNTVYLQMNSLKPEDTAVYYCNRGSPGGPSWYHYDYWGQGTQVTVSS” the value was “high polyreactivity”.
As to “QVHLVESVGGLVQAGGSLRLSCAGSGRIFYLNSMGWYRQATGKDRELVAGITNSTTGTYYADSVKGRFKISRDNAKNTVYLQMNSLKAEETAVYYCNTDVAYEEPVETYDYWGQGTQVTVSS”, the “polyreactivity (PSR sort gate)” value is “low polyreactivity”.
As to “QVHLVETGGGLDQAGGSLRLSCAASGYTFKTNDMRAYSPPPGKDREFVAAISAIGASTYYADSVKGRFTISRDTAKNTVYLQMKSLKPEDTAVYYCATGPYPLWYVWTDGYDHWGQGTQVPVSS”, the “polyreactivity (PSR sort gate)” value is “low polyreactivity”.
As for “QVHLVGSGGCLVQAGGSLRLSCAASGITFYYYVMGWYRQSPGKERELVAAINSGGSTNYADSVKGRFTISRDNAKNTVYLQMNSLKPEDTAVYYCNAYTVRSYRFDYWGQGTQVTVSS”, the “polyreactivity (PSR sort gate)” value was “high polyreactivity”.
For “QVHLVVSGGGLVQAGGSLRLMCAASGSTFKYYVMGWYRQAPGKERELVAAISGSGGSKYYADSVKGRFTISRDNAKNTVYLQMNSLIPEDTAVYYCAAGRLRGPGYYFTFDYWGQGTQVTVSS”, the “polyreactivity (PSR sort gate)” value is on record as “high polyreactivity”.
With “QVHPVESGGGLVQAGGSIRLSCAASGRIFRRYTMGWYRQAPGHERELVAAITRGGGSTSYADSVKGRFTISRDNAKNTVYLQMNSLKPEDTAVYYCAAQARTSTIRGYDYWGQGTQVTVSS”, the “polyreactivity (PSR sort gate)” value is recorded as “high polyreactivity”.
“QVHRVVSGGGLVQAGGSLRLSCSAYGFTFYLYAMGWYRQAPGKERELVAAISSGTSTYYADSVKGRFTISRDNAKNTVYLQMNSLKPEDTAVYYCDAATNWGGEYWGHGTQVTVSS”: the “polyreactivity (PSR sort gate)” value was “high polyreactivity”.
As to “QVKIVESVGGLVQSGGSLRLSCAASGRTFHRNARGLYREAPGTEREWVATITTNGGATDYADTVTGRFTSSRDNAKNTFYFHMHSQIPEDTAVYYCSAPFNPRVRPLGSVRMYYWGQGTQVTVSS”, the “polyreactivity (PSR sort gate)” value is given as “low polyreactivity”.
For “QVKLEESGGGLVQAGGSLRLTCAASGSTFKYNAMGWYRQAPGKERELVAAISSGGSTNYADSVKGRFTISRDNAMNTVYLQMISLKPEDTAVYYCNADYTYVTAWYYYWGQGTQVTVSS”, the “polyreactivity (PSR sort gate)” value is recorded as “high polyreactivity”.
Turning to “QVKLLESGGGLLQAGGSLRLSCAASGLTFYPYAMAWYRQAPGKERELVATITWSGTTTYYADSVKGRFTISRDNAKNTVYVQMNSLKPEDTAVYYCAADLWEVVTPYVTIDDDYWGQGTQVTVSS”, the “polyreactivity (PSR sort gate)” value is given as “high polyreactivity”.
As for “QVKLLESVGGLVQAGGSLRLSCMASGSILGDRMSWYRQPPGKEHELVATIYDGGITYYADSMKGRFTISRDNAKNTVYLQMNSLRPEDTAVYYCGASLEGYRYHVYCGQGTQVTVSS”, the “polyreactivity (PSR sort gate)” value was “low polyreactivity”.
To “QVKLQESGGGLVQAGGSLRLSCAASGYISHADEMGWYRQAPGKEHELVASISNGGSTNYADSVKGRFTISRDNAKNTVYLQMNSLKWEDTAVYYWAAWTGQVDIHYYWGQGTQVTVSS” belongs “low polyreactivity”.
To “QVKLVDSGGGLVQAGGSLRLSCAASGRTFWNYAMGWYRQAPGKERELVAVIRFSDGSTYYADSVKGRFTISRDNAKNTVYLQMNSLKPEDTAVYYCAAKGPRRWGSGFDYWGQGTQVTVSS” belongs “low polyreactivity”.
In the case of “QVKLVDSGGGLVQAGGSLRLTCAASGITFDKYAMGWYRQAPGKERELVAAITKSSGSTYYADSVKGRFTISRVNAKNTDYLQMNSLKAEDTAVYYCAAGIVYCEYFWGQGTQVTVSS”, the “polyreactivity (PSR sort gate)” value is “high polyreactivity”.
For “QVKLVDTGGGLVKAGGSLLLSCAASGSPFVWYGMGWYRQSHGKEREFDAAISTSGGRTYYADSVKGRFTISRDNAKNTVYLQMNSLKPEDTAVYYCARQPRLYFKGKLYGYWGQGTQVTVSS” the value was “high polyreactivity”.
To “QVKLVESAAGLVQAGGSLRLSCDASGFTFALYANGLYIQAPRKERELVAVITYCGGRTYYADSVKGRFTISRVNAKNTVYLLMYSLKPEDTAVYYCNARYRQKGLYGTAFDYWGQGTQVTVSS” belongs “high polyreactivity”; to “QVKLVESAGGLVQAGGSLRLSCSASAFIFGFNAMGWYRQEPGKERELVAAITWRGGRTSNADSVKGRFTISRDNAKNTVYLQMNSLKPEDTAVYYCAARRGTIVTRSRGYNYWGQGTQVTVSS”, “high polyreactivity”.
As to “QVKLVESGGCLVKAGGSLRLSCAATGRIFLYYAMGWYRQAPGKEMELVATITSGGRTNYADSVKGRFTISRDNAKNTVYLQMNSLKPVDTAVYNCARQSYGSYRRYGFSALYGYLGQGTQVTVSS”, the “polyreactivity (PSR sort gate)” value is on record as “high polyreactivity”.
Turning to “QVKLVESGGGLDQAGGSLRLSCAASGTIFRKNAMGWYRQAPGKERELVAAMTGTGRTTYADSVKGRFTISRDNAKNTFYLQMNSLKPEDTAVYYCAADVNYYQHRLYYWGQGTQVTVSS”, the “polyreactivity (PSR sort gate)” value is “low polyreactivity”.
Turning to “QVKLVESGGGLFQAGGSLRLSCAASGITFTFNAMGWYRQAPGKERELVAAITWSGGSTFYADSVKGRFTISRDNAKNTVYLQMNSLKPEDTAVYYCARDTELYVRWLDYWGQGTQVTVSS”, the “polyreactivity (PSR sort gate)” value is “low polyreactivity”.
Take “QVKLVESGGGLVKAGASLRLSCAASGSTLQHYAMGWYRQAPGKERELVAAINRSGDRTYYADSVKGRFTISRDNAKTTVYLQMNSLKPEDTPVDYCAAYDDYRAPVRYEYWGQGTQVTVSS”: the “polyreactivity (PSR sort gate)” value is “high polyreactivity”.
For “QVKLVESGGGLVQAGCSLRLTCAASGSTSDMKAMGWYRQAPGKERELVAAISYSGGSTYYADSVKGRFTMSRDNAKNTVYLQMNSLKPEDTAVYYCAKQVADRYDYWGQGTEVTVSS” the value was “low polyreactivity”.
Turning to “QVKLVESGGGLVQAGGRLRLSCAASGSIFTYYAMGWYRQAPGKERELVAAISYGGGSTYYADSVKGRFTISRDNAKYTVYLQMNSLKPEDTAVYDCNGVLGVNYGYWGQGTQVTVSS”, the “polyreactivity (PSR sort gate)” value is on record as “high polyreactivity”.
With “QVKLVESGGGLVQAGGSLRLICAASGRISQSNAMGRYRQAPGKERELVAAISWRGGSTYYADSVMGRFTISRDNAKNTVYLQMNSLKPEDTAVYYSAVRGKYDRHYYWGQGTQVTVSS”, the “polyreactivity (PSR sort gate)” value is “high polyreactivity”.
With “QVKLVESGGGLVQAGGSLRLRCAASGIIFDYYAMGWYRQAPGKERELVAAISKRGGSTYYADSVKGRFTISRDNAKNTVYLQMNSLKPEDTAVYYCAAVYAREAKRYDYWGQGTQVTVSS”, the “polyreactivity (PSR sort gate)” value was “high polyreactivity”.
On to “QVKLVESGGGLVQAGGSLRLSCAASGFTFRRYAMGWYRQAPGKERELVAGITSGGSTYYADSVKGRFTISRDNAKNTVYLQMNSLKPEDTAVYYCNTKVISRTSERRGNGFTRYDYWGQGTQVTVSS”, for which the “polyreactivity (PSR sort gate)” value is recorded as “low polyreactivity”.
With “QVKLVESGGGLVQAGGSLRLSCAASGFTFYYYTMGGSRQAPGKERELVAAITSRGGNTYYADSVKGRFTISRDYEKNTVYLQMNSLKPEDTAVYYCAACLFSSRCYGYWGQGTQVTVSS”, the “polyreactivity (PSR sort gate)” value is recorded as “high polyreactivity”.
Consider “QVKLVESGGGLVQAGGSLRLSCAASGFTIRSYVMGWYRQAPGKERELVAAIRRSGGSTYYADSVKGRFTISRDNAKNTVYFQMNSLKREDTAVYYCAAYIWWRDYIEFDYWGQGTQVTVSS”, for which the “polyreactivity (PSR sort gate)” value is “high polyreactivity”.
On to “QVKLVESGGGLVQAGGSLRLSCAASGGIFSPNAMGWYRHAPGKERELVAAISSNGGSTNYADSVKGRFTISRDNAKNTVYLQMNSLKPEDNAVYYCAKVYRSIGPNVSRYGLSYYYWGQGTQVTVSS”, for which the “polyreactivity (PSR sort gate)” value was “low polyreactivity”.
For “QVKLVESGGGLVQAGGSLRLSCAASGGNFGNYAMGWYRQAPWKERELVATIRYRGGSTYYADSVKGRFTISRDNAKITVYLQMNSLIPEDTAVFYCAARRSHPQDPRFRYGYWGQATQVTVSS” the value was “high polyreactivity”.
To “QVKLVESGGGLVQAGGSLRLSCAASGGNFYRYAMGWYRQAPGKERELVAAITRGDSTNYADSVKGRFTISRDNAKNTVYLQMNSLKPEDTAVYYCNAAVSARQNDTGGFQGDYWGQGTQVTVSS” belongs “low polyreactivity”.
As for “QVKLVESGGGLVQAGGSLRLSCAASGLTFDHNVMGWYRPAPGKERELVAAISRSGSSTYYADSVKGRFTISRDNAKNTVYLQMNSLKPEDTAVYYCAAARSRYSYATGFDYWGQGTQVTVSS”, the “polyreactivity (PSR sort gate)” value is listed as “high polyreactivity”.
For “QVKLVESGGGLVQAGGSLRLSCAASGLTYLYTMGWSRQAPGKERELVAAITRSGRTYYADSVKGRFTISRDNAKNTVYLQMNSLKPEDTAVYYCATRTGYQQPDGRYYYWGQGTQVTVSS”, the “polyreactivity (PSR sort gate)” value is reported as “high polyreactivity”.
